Results: patent publication US8541376B2, “Composition comprising and method of using angiopoietin-like protein 3 ANGPTL3” (Genentech, Inc., priority 2001, dated 2013)

Key:
HMVEC = assay: endothelial cell adhesion assay on Angptl3-coated plates; assay type: cell-based, human
Experimental: (§1) In order to identify potential integrins binding to Angptl3, recombinant Angptl3 proteins were coated onto 96-well flat-bottomed microtiter plates (MaxiSorp, Nunc, Denmark) overnight at 4° C. and blocked with 100 μg/ml BSA in PBS for 1 hour at 37° C. Various 293 cell lines stably transfected with different integrin heterodimers, including IIbIIIa (αIIBβ3), αvβ3, αvβ1 and αvβ5, were tested for their ability to bind Angptl3 coated plates. Cells were harvested and diluted to 10^5 cells/ml in serum-free CS-C medium containing 1% BSA, 1 mM CaCl2 and 1 mM MgCl2. Cells were preincubated with or without blocking antibodies or peptides for 15 minutes at 37° C. and then stimulated with 200 nM PMA. Cell suspensions (10^4 cells/well) were added to the coated wells and the plates were incubated at 37° C. for selected times. Non-adherent cells were removed by PBS washes and cell attachment was measured using the PNAG method of Lanndegren (Landegren, U., J. Immunol. Methods, 67:379-388 (1984)). Results are expressed at mean OD405 values of triplicate wells.
To determine whether the αvβ3 integrin was sufficient to mediate Angptl3 cell adhesion, blocking antibodies or inhibitory peptides were tested for their ability to inhibit the adhesion in the cell adhesion assay. Function blocking antibodies were added to the endothelial cells prior to incubation with the Angptl3-coated wells. […]

[1] = system: Human microvascular endothelial cells (HMVECs); assay: FACS binding of gD-tagged ligands in conditioned media to endothelial cells; conditions: for binding to HMVEC: conditioned media from transfected 293 cells, gD-tagged ligands, FACS
Experimental: Because of the structural similarities between Angptl3 and angiopoietins, Angptl3 was tested for the ability to bind, in culture, to primary endothelial cells expressing the Tie2 receptor. Human microvascular endothelial cells (HMVECs), purchased from Cell System (Kirkland, Wash.), maintained in CS-C complete medium containing 10% fetal bovine serum and mitogens according to the recommendations by the supplier, were incubated with conditioned media from transiently transfected 293 cells expressing epitope (gD)-tagged versions of Tie2 ligands angiopoietin 1 and 2 (Ang1 and Ang2), Angptl3, and angiopoietin related protein 1 (ARP1), respectively. ARP1 is a structurally related molecule, consisting of a coiled-coil and a fibrinogen-like domain but unable to bind Tie2, and was used as a negative control.

Tie2 receptor = biological target: T1, Tie2 receptor (Homo sapiens, UniProt Q02763); assay: co-immunoprecipitation in cotransfected 293 cells; assay type: binding; conditions: immunoprecipitation with anti-Tie2, anti-gD blot
T1 construct: in conjunction with full length receptor constructs for Tie1 and Tie2, respectively; expressed in transfected cells; host or cells: 293 cells (transient transfection)
Experimental: (§2) To test whether Tie2, the receptor for angiopoetins 1, 2 and 3 (Ang1, Ang2, and Ang3), or Tie1, an orphan receptor with high sequence homology to Tie2, bind to Angptl3, immunoprecipitation experiments were conducted using 293 cells transiently with expression vectors for epitope (gD)-tagged versions of Ang1 and Ang2, Angptl3 and ARP1 in conjunction with full length receptor constructs for Tie1 and Tie2, respectively. Whole cell extracts were prepared by lysis in RIPA buffer (1×PBS; 1% NP40; 0.5% sodium deoxycholate; 0.1% SDS; PMSF, 100 μg/ml; Aprotinin, 30 μl/ml; sodium orthovanadate, 1 μM) containing freshly added protease inhibitors. Extract was incubated with antibodies specific for Tie1 or Tie2 (Santa Cruz Biotechnology, San Diego, Calif.) and the resulting immunoprecipitate was analyzed by SDS-PAGE and immunoblotting. Specifically, proteins resolved by SDS-PAGE and blotted to PVDF membrane were incubated with antibodies against the gD tag or the Tie receptors, respectively.

rat cornea = rat cornea in vivo angiogenesis assay; conditions: for angiogenic response compared to levels obtained for VEGF: Angptl3 500 ng vs VEGF 100 ng
Experimental: In order to test whether Angptl3 was capable to induce an in vivo angiogenic response in the rat cornea, […] pellets containing murine and human Angptl3 (500 ng) as well as human VEGF (100 ng) were implanted separately or in combination as described previously (Xin et al., J. Biol. Chem., 274:[…] (1999)). Hydron pellets containing excipient (control, murine or human Angptl3 (500 ng), VEGF (100 ng), or the combination of murine or human Angptl3 (500 ng) and VEGF (100 ng) were implanted into the corneas of 250 to 300 g male Sprague-Dawley rates. All hydron pellets contained 100 ng of sucralfate. […] Corneal whole mounts were made of the enucleated eyes and analyzed for neovascular areas using a computer-assisted image analysis (Image Pro-Plus 2.0, Silver Spring, Md.). In contrast to previous reports focusing on the effects of angiopoietin 1 and 2 when tested in the corneal angiogenesis assay (Asahara et al., Circ. […] These findings might reflect the interdependent signal transduction pathways engaged by both ligands (Byzova et al., Mol. Cell. 6:852-60 (2000)).

Tie1 receptor = biological target: T2, Tie1 receptor (Homo sapiens, UniProt P35590); assay: co-immunoprecipitation in cotransfected 293 cells; assay type: binding; conditions: immunoprecipitation with anti-Tie1, anti-gD blot
T2 construct: in conjunction with full length receptor constructs for Tie1 and Tie2, respectively; expressed in transfected cells; host or cells: 293 cells (transient transfection)
Experimental: as §2

αvβ3 integrin = biological target: T3, αvβ3 integrin (Homo sapiens, UniProt P05106+P06756); assay: adhesion of integrin-transfected 293 cell lines to Angptl3-coated plates; assay type: cell-based; conditions: plates coated with 20 μg/ml hAngptl3, 4 hours; compared to cell lines expressing αIIbβ3, αvβ1, αvβ5
T3 construct: expressed in transfected cells
Experimental: as §1

[2] = system: freshly isolated murine hepatocytes; assay: cell adhesion on protein-coated plates, hepatocytes; assay type: cell-based, mouse; conditions: dishes coated with recombinant mAngptl3 (FIG. 13 legend), 200 nM PMA
Experimental: 96-well flat-bottomed plates (MaxiSorp, Nunc, Denmark) were coated overnight at 4° C. with the indicated concentrations of proteins and blocked with 3% BSA in PBS for 1 hour at 37° C. Primary human dermal endothelial cells (HMVECs) and freshly isolated murine hepatocytes that were prepared from the livers of adult C57/B16 mice using the method described in LeCouter et al (LeCouter et al., 2001) were harvested and diluted to 10^5 cells/ml in serum-free CS-C medium containing 1% BSA, 1 mM CaCl2 and 1 mM MgCl2 in the presence of 200 nM PMA. […] Cell suspensions (10^4 cells/well) were added to the coated wells and the plates were incubated at 37° C. for selected times. Non-adherent cells were removed by PBS washes and cell attachment was measured using the PNAG method of Landegren (Landegren, 1984). Results were expressed at mean OD405 values of triplicate wells.

LFA1 = LFA1 (Homo sapiens, UniProt P05107+P20701); conditions: ELISA in vitro (Camenisch et al., 2002); cited from earlier work
Mac-1 = Mac-1 (Homo sapiens, UniProt P05107+P11215); conditions: ELISA in vitro (Camenisch et al., 2002); cited from earlier work
Mac-1, sequence (P05107 23-769, other chains not shown): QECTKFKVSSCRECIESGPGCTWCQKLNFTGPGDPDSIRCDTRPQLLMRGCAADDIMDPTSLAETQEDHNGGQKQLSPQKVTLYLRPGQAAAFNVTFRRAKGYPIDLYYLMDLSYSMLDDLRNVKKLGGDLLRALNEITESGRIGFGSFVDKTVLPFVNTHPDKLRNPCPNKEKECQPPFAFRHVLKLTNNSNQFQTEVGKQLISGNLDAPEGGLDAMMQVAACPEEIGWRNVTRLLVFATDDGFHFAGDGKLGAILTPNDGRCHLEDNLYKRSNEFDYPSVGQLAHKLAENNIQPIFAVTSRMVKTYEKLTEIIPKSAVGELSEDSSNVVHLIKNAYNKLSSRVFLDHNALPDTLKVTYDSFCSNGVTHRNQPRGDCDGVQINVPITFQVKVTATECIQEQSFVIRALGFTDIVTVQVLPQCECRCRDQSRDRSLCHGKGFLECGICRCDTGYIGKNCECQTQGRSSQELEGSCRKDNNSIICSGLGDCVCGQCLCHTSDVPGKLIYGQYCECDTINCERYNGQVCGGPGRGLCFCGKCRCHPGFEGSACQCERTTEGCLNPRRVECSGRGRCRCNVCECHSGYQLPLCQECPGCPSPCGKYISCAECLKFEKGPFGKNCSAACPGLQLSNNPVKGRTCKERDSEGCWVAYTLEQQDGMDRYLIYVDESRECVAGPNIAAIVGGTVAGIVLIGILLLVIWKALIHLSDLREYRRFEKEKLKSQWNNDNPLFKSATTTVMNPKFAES

T1 sequence (Q02763 23-1124): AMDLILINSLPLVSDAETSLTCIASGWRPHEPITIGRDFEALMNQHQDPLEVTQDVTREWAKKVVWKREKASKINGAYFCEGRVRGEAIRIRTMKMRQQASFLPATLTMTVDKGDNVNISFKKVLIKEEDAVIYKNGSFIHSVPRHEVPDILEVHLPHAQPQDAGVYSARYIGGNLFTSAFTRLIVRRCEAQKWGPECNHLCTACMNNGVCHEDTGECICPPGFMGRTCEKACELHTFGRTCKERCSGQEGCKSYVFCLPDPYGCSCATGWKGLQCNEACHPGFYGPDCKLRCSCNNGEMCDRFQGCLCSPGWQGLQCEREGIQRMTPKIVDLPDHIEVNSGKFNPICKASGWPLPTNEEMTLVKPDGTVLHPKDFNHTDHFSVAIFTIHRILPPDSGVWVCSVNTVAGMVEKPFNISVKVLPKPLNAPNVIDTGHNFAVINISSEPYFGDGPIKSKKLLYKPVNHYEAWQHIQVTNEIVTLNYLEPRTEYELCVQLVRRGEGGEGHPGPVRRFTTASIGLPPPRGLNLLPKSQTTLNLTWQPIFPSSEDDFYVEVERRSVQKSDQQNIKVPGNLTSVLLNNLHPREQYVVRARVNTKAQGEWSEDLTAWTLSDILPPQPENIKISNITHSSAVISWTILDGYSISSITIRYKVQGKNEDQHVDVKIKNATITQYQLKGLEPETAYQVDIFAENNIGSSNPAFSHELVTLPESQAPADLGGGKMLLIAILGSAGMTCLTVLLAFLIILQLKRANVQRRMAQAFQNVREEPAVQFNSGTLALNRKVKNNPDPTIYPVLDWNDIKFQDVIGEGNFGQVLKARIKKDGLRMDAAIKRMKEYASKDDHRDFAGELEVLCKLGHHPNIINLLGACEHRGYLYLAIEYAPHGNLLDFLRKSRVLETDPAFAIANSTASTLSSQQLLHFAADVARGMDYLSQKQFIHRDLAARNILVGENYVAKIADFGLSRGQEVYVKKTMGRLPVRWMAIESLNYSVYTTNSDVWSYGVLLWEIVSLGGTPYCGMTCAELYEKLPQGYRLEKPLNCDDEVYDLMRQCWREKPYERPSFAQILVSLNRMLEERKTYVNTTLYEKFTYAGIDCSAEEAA
LFA1, sequence (P20701 26-1170): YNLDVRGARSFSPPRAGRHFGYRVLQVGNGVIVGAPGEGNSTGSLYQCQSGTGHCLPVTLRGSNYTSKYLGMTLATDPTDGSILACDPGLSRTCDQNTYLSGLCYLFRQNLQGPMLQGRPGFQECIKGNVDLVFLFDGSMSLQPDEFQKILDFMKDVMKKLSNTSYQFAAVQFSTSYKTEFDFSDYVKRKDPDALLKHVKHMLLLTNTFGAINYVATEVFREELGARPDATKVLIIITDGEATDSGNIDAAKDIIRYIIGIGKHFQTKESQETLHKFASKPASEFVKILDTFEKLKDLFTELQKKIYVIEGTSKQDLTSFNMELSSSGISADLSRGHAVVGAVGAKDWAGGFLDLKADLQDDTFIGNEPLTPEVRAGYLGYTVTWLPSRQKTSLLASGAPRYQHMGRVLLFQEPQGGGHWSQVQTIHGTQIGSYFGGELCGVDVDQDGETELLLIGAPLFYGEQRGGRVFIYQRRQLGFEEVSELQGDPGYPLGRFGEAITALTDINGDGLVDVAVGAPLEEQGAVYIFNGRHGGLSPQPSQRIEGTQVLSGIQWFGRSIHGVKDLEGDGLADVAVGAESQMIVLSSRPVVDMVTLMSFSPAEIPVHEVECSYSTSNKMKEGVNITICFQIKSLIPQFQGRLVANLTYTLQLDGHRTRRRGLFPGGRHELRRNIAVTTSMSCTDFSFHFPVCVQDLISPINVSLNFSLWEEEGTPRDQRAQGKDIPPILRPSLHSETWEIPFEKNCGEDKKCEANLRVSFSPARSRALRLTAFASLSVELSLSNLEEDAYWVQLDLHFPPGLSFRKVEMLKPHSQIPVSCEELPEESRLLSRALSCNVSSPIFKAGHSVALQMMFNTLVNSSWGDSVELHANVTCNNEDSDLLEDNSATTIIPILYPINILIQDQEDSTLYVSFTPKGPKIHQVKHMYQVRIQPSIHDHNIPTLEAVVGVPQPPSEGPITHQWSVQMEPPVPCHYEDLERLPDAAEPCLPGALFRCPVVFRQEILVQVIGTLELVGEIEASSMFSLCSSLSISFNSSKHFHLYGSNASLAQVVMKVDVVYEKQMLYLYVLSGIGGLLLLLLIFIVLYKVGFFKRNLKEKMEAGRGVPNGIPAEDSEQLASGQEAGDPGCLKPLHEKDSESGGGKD
LFA1, sequence (P05107 23-769): as the sequence (P05107 23-769, other chains not shown) above
T2 sequence (P35590 22-1138): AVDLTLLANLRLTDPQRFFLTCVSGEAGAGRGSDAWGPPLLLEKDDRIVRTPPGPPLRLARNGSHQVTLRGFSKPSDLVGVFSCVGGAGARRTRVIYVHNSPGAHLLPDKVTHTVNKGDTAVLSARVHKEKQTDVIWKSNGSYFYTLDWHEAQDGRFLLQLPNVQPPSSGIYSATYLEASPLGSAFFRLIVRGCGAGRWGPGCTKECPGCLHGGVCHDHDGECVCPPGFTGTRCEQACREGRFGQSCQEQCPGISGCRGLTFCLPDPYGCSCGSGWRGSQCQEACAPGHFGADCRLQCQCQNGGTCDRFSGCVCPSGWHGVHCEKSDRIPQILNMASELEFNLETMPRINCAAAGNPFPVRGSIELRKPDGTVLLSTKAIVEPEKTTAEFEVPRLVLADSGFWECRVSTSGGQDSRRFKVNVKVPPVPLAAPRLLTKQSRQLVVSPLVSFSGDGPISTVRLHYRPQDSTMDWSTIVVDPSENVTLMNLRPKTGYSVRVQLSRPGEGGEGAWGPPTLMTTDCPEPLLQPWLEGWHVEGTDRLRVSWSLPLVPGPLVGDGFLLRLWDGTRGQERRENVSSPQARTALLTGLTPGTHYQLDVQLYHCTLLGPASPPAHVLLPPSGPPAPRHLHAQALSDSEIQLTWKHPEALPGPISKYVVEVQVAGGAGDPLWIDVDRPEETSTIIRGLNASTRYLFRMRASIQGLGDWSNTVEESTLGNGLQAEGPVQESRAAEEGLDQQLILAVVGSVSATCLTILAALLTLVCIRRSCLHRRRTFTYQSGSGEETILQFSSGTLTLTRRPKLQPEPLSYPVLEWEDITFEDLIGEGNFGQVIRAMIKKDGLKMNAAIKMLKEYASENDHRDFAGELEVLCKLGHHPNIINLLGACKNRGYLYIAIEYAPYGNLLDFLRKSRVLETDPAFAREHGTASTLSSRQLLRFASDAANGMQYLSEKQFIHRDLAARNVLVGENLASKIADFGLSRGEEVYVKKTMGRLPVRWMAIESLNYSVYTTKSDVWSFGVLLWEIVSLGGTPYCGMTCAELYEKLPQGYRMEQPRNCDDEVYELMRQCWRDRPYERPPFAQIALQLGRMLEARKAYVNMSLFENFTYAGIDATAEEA

## O=C(O)CN(CCN(CC(=O)O)CC(=O)O)CC(=O)O [EDTA, reference compound]
HMVEC; EDTA 10 mM
  effect of EDTA on endothelial cell adhesion to Angptl3: completely abolished

## Ang2: epitope (gD)-tagged Tie2 ligand angiopoietin 2 [reference compound]
[1]
  binding to HMVEC: strongly bound
Tie2 receptor
  binding to Tie2: Tie2 binding

B1: murine Angptl3: recombinant mouse Angptl3 overexpressed in CHO cells (protein, UniProt Q9R182 17-455, looked up)
Angiopoietin-related protein 3: SRVDPDLSSFDSAPSEPKSRFAMLDDVKILANGLLQLGHGLKDFVHKTKGQINDIFQKLNIFDQSFYDLSLRTNEIKEEEKELRRTTSTLQVKNEEVKNMSVELNSKLESLLEEKTALQHKVRALEEQLTNLILSPAGAQEHPEVTSLKSFVEQQDNSIRELLQSVEEQYKQLSQQHMQIKEIEKQLRKTGIQEPSENSLSSKSRAPRTTPPLQLNETENTEQDDLPADCSAVYNRGEHTSGVYTIKPRNSQGFNVYCDTQSGSPWTLIQHRKDGSQDFNETWENYEKGFGRLDGEFWLGLEKIYAIVQQSNYILRLELQDWKDSKHYVEYSFHLGSHETNYTLHVAEIAGNIPGALPEHTDLMFSTWNHRAKGQLYCPESYSGGWWWNDICGENNLNGKYNKPRTKSRPERRRGIYWRPQSRKLYAIKSSKMMLQPTT
Rat cornea; 500 ng each
  potency in inducing angiogenesis compared to the recombinant human protein: slightly more potent
Rat cornea
  angiogenic response compared to levels obtained for VEGF: comparable

B2: Ang1: epitope (gD)-tagged Tie2 ligand angiopoietin 1 (protein, listed as Homo sapiens)
chain: RDCADVYQAGFNKSGIYTIYINNMPEPKKVFCNMDVNGGGWTVIQHREDGSLDFQRGWKEYKMGFGNPSGEYWLGNEFIFAITSQRQYMLRIELMDWEGNRAYSQYDRFHIGNEKQNYRLYLKGHTGTAGKQSSLILHGADFSTKDADNDNCMCKCALMLTGGWWFDACGPSNLNGMFYTAGQNHGKLNGIKWHYFKGPSYSLRSTTMMIRPLDF
modifications: gD epitope tag
Tie2 receptor
  binding to Tie2: Tie2 binding

B3: Angptl3: angiopoietin-like protein 3, native human sequence SEQ ID NO: 2; recombinant gD-tagged secreted glycoprotein (protein, listed as Homo sapiens)
chain: MFTIKLLLFIVPLVISSRIDQDNSSFDSLSPEPKSRFAMLDDVKILANGLLQLGHGLKDFVHKTKGQINDIFQKLNIFDQSFYDLSLQTSEIKEEEKELRRTTYKLQVKNEEVKNMSLELNSKLESLLEEKILLQQKVKYLEEQLTNLIQNQPETPEHPEVTSLKTFVEKQDNSIKDLLQTVEDQYKQLNQQHSQIKEIENQLRRTSIQEPTEISLSSKPRAPRTTPFLQLNEIRNVKHDGIPAECTTIYNRGEHTSGMYAIRPSNSQVFHVYCDVISGSPWTLIQHRIDGSQNFNETWENYKYGFGRLDGEFWLGLEKIYSIVKQSNYVLRIELEDWKDNKHYIEYSFYLGNHETNYTLHLVAITGNVPNAIPENKDLVFSTWDHKAKGHFNCPEGYSGGWWWHDECGENNLNGKYNKPRAKSKPERRRGLSWKSQNGRLYSIKSTKMLIHPTDSESFE
modifications: gD tag
notes: recombinant gD-tagged secreted glycoprotein
[1]; cells exposed to hypoxia or VEGF, data not shown
  binding to HMVEC after exposure of cells to hypoxia or VEGF: significantly increased
[1]
  binding to HMVEC: strongly bound
Tie1 receptor
  binding to Tie1: did not bind
Tie2 receptor
  binding to Tie2: did not bind
HMVEC; increasing coating amounts of hAngptl3, within 4 hours
  induction of endothelial cell adhesion: robust, dose-dependent adhesion
αvβ3 integrin
  adherence of 293 cells expressing αvβ3 to Angptl3: marked increased
Rat cornea; 500 ng in hydron pellet, alone, 5 days after pellet implantation
  in vivo angiogenic response in rat cornea: strong angiogenic response
Rat cornea
  angiogenic response compared to levels obtained for VEGF: comparable
[2]
  hepatocyte adhesion: Coating-concentration dependent
LFA1
  binding to LFA1: did not bind
Mac-1
  binding to Mac-1: did not bind

B4: ARP1: angiopoietin related protein 1, unable to bind Tie2, negative control (protein, UniProt O95841 24-491, looked up)
Angiopoietin-related protein 1: GQFKIKKINQRRYPRATDGKEEAKKCAYTFLVPEQRITGPICVNTKGQDASTIKDMITRMDLENLKDVLSRQKREIDVLQLVVDVDGNIVNEVKLLRKESRNMNSRVTQLYMQLLHEIIRKRDNSLELSQLENKILNVTTEMLKMATRYRELEVKYASLTDLVNNQSVMITLLEEQCLRIFSRQDTHVSPPLVQVVPQHIPNSQQYTPGLLGGNEIQRDPGYPRDLMPPPDLATSPTKSPFKIPPVTFINEGPFKDCQQAKEAGHSVSGIYMIKPENSNGPMQLWCENSLDPGGWTVIQKRTDGSVNFFRNWENYKKGFGNIDGEYWLGLENIYMLSNQDNYKLLIELEDWSDKKVYAEYSSFRLEPESEFYRLRLGTYQGNAGDSMMWHNGKQFTTLDRDKDMYAGNCAHFHKGGWWYNACAHSNLNGVWYRGGHYRSKHQDGIFWAEYRGGSYSLRAVQMMIKPID
[1]
  binding to HMVEC: no binding was observed
